Laboratory results as given in patent publication US9051392 (dated 2015).

B1: Fas deletion 1-66 (protein)
chain: QVTDINSKGLELRKTVTTVETQNLEGLHHDGQFCHKPCPPGERKARDCTVNGDEPDCVPCQEGKEYTDKAHFSSKCRRCRLCDEGHGLEVEINCTRTQNTKCRCKPNFFCNSTVCEHCDPCTKCEHGIIKECTLTSNTKCKEEGSRSN

Experiments:
[1] = biological target: T1, Fas Pt 2 (deletion 52-96) (human, UniProt P25445); test: FACS
T1 chain: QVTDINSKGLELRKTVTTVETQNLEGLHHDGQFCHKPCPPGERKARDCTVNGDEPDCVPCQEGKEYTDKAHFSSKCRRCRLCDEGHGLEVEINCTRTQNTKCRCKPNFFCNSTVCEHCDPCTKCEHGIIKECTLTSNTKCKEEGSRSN

Fas deletion 1-66 = biological target: B1; test: FACS
p60ΔCD-GFP-HA = biological target: T2, p60ΔCD-GFP-HA (human, UniProt P19438); test: other (co-immunoprecipitation)
T2 chain: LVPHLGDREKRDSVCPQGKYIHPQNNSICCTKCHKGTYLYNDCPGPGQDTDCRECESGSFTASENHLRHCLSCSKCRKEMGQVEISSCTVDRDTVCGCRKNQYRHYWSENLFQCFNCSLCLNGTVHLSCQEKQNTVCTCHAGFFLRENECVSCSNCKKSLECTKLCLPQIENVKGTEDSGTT

HA-Fas 1-210:GFP = biological target: T3, HA-Fas 1-210:GFP (human, UniProt P25445); test: other (co-immunoprecipitation)
T3 chain: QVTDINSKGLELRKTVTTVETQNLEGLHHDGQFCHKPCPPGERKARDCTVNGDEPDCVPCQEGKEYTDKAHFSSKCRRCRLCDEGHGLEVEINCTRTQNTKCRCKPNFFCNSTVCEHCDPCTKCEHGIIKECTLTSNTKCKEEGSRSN

Fas = biological target: T4, Fas (human, UniProt P25445); test: other (co-immunoprecipitation)
T4 chain: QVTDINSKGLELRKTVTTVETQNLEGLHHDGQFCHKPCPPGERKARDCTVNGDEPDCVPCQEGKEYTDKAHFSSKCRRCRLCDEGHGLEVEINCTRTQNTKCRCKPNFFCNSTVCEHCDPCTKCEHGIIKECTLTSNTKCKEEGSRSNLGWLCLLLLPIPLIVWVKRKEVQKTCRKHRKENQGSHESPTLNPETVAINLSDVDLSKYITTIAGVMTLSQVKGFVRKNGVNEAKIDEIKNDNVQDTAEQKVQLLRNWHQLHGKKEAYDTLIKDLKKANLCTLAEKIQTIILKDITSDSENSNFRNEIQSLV

Binder	binding result (p60ΔCD-GFP-HA)	binding result (HA-Fas 1-210:GFP)	also measured
Fas ligand (trimerized) (protein) PSPPPEKKELRKVAHLTGKSNSRSMPLEWEDTYGIVLLSGVKYKKGGLVINETGLYFVYSKVYFRGQSCNNLPLSHKVYMRNSKYPQDLVMMEGKMMSYCTTGQMWARSSYLGAVFNLTSADHLYVNVSELSLVNFEESQTFFGLYKL			binding result [1]: no binding; binding result (Fas deletion 1-66): no binding
p60ΔCD K32A (protein) LVPHLGDREKRDSVCPQGKYIHPQNNSICCTACHKGTYLYNDCPGPGQDTDCRECESGSFTASENHLRHCLSCSKCRKEMGQVEISSCTVDRDTVCGCRKNQYRHYWSENLFQCFNCSLCLNGTVHLSCQEKQNTVCTCHAGFFLRENECVSCSNCKKSLECTKLCLPQIENVKGTEDSGTT	no binding		
Fas deletion 1-43 (protein) QVTDINSKGLELRKTVTTVETQNLEGLHHDGQFCHKPCPPGERKARDCTVNGDEPDCVPCQEGKEYTDKAHFSSKCRRCRLCDEGHGLEVEINCTRTQNTKCRCKPNFFCNSTVCEHCDPCTKCEHGIIKECTLTSNTKCKEEGSRSN		no binding	
p60ΔCD KY19/20AA (protein) LVPHLGDREKRDSVCPQGAAIHPQNNSICCTKCHKGTYLYNDCPGPGQDTDCRECESGSFTASENHLRHCLSCSKCRKEMGQVEISSCTVDRDTVCGCRKNQYRHYWSENLFQCFNCSLCLNGTVHLSCQEKQNTVCTCHAGFFLRENECVSCSNCKKSLECTKLCLPQIENVKGTEDSGTT	no binding		
HVEMΔCD:GFP (protein) LPSCKEDEYPVGSECCPKCSPGYRVKEACGELTGTVCEPCPPGTYIAHLNGLSKCLQCQMCDPAMGLRASRNCSRTENAVCGCSPGHFCIVQDGDHCAACRAYATSSPGQRVQKGGTESQDTLCQNCPPGTFSPNGTLEECQHQTKCSWLVTKAGAGTSSSHWV			binding result (Fas): no binding
B1		no binding	
